Test system: T1, L-JBD20 peptide (20 amino acid minimal JNK-inhibitory sequence of JIP-IB1)
T1 sequence: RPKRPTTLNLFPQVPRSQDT

With p34 as the substance, how does the “p34 kinase activity (substrate histone) at the tested peptide concentration” value read?
The value was 500 µM of the JBD20 peptides did not interfere with the activity of 6 particular kinases: ERK2, p38, pKC, p34, caK and pKA.

For pKC, which “pKC kinase activity (substrate histone) at the tested peptide concentration” value is on record?
The value was 500 µM of the JBD20 peptides did not interfere with the activity of 6 particular kinases: ERK2, p38, pKC, p34, caK and pKA.

With pKA as the substance, how does the “pKA kinase activity (substrate histone) at the tested peptide concentration” value read?
Its value is 500 µM of the JBD20 peptides did not interfere with the activity of 6 particular kinases: ERK2, p38, pKC, p34, caK and pKA.

p38 was tested. Which “p38 kinase activity (substrate ATF2) at the tested peptide concentration” value did it give?
Its value is 500 µM of the JBD20 peptides did not interfere with the activity of 6 particular kinases: ERK2, p38, pKC, p34, caK and pKA.

With caK as the substance, how does the “caK kinase activity (substrate caseine) at the tested peptide concentration” value read?
Its value is 500 µM of the JBD20 peptides did not interfere with the activity of 6 particular kinases: ERK2, p38, pKC, p34, caK and pKA.
